In patent US20250263469A1 one finds Median IC50, SARS-CoV-2 PsV neutralization data, which are given here for two substances.

The target of the test is SARS-CoV-2 Spike on pseudotyped virus (PsV) (SARS-CoV-2) (UniProt P0DTC2). Nature of the test: cell-based or functional assay.

With “REGN10933 (recombinant mAb, reference IgG) (antibody)”, the Median IC50, SARS-CoV-2 PsV neutralization is 0.0044 µg/mL.

As to “REGN10987 (recombinant mAb, reference IgG) (antibody)”, the Median IC50, SARS-CoV-2 PsV neutralization was 0.03 µg/mL.
